# Experimental data published in the RNAGym collection of RNA variant scans (doi:10.7554/elife.90254).
# B1: LINE1-full (parent)
# chain: UACGUAGGUGGUUUUCCCCUGAUAGUGCUAAGGGGGCCUGGAAGUUUGGACUGGGCAGAGCUCAACACAGCGUGGCAAAGUGGCUGUGGCUAGACUGCCUCUCUGGAUUCCUCGUCACUCAGCAGGGCAUCUCUGAGAGAAAUGCC
# Variants of: B1
# Test: self-cleavage, relative activity (ratio to wild type); higher = more cleavage; in vitro, sequencing; the parent is a self-cleaving ribozyme
row,Variant,self-cleavage
1,G83A U109A,0.96
2,G82A U134G,1.08
3,A78G C146U,1.06
4,G80A C128U,1.9
5,A79G A121U,1.13
6,A79G G135A,1.38
7,G80A U100C,1.42
8,G83A A92U,0.27
9,A78G C84A,0.09
10,A79G U108C,1.61
11,A79G U108A,1.17
12,U81C G127A,2.07
13,A79G G80A,1.89
14,C84G A140G,0.12
15,U81G A140U,1.35
16,A79C A138U,2.19
17,A78U U130C,2.68
18,G82A U102C,1.57
19,G83C U132A,0.73
20,A79G C101A,0.68
21,U81C A129G,1.56
22,U81A U91A,0.93
23,A79U G86A,0.07
24,U81A C123U,1.01

row,Variant,self-cleavage
1,A79U C99A,0.31
2,A79G G89U,0.05
3,C84A A138G,0.05
4,A78G G135A,1.17
5,A78U A107G,2.47
6,A79U A107U,1.74
7,A79G U119G,1.31
8,A79G U119C,1.48
9,U81A U109A,2.28
10,U81A U100C,2.98
11,G83A U100C,1.21
12,A79U U108C,2.3
13,G82A U104C,0.83
14,A79G U96A,0.09
15,A79G U96C,0.16
16,A78G C116U,1.29
17,U81C C95U,0.26
18,U81A C146A,2.08
19,C84A U112C,0.16
20,A78U A141G,1.96
21,U81G U134G,1.73
22,A78U U100A,1.13
23,A79C G89A,0.09
24,U81A U130A,1.3

row,Variant,self-cleavage
1,U81C U91A,0.56
2,A78G U130A,1.1
3,A78G U130G,1.88
4,A78G U130C,1.29
5,A79G A117G,1.27
6,A78U A140U,1.72
7,A79G G86U,0.1
8,U81C C101U,2.14
9,G82A A141G,1.8
10,G83A U132A,1.09
11,A79G U87G,0.07
12,G83U U119A,0.65
13,A78G A138C,1.31
14,A78G A138G,1.69
15,A78G U96A,0.06
16,A79G A124G,0.62
17,G80A G88U,0.15
18,A79U U91C,1.04
19,U81C U134A,0.94
20,U81C U134C,1.36
21,G82U A117U,1.3
22,A79G A92U,0.66
23,A79G A92G,0.18
24,G80A A141G,1.89

row,Variant,self-cleavage
1,G82A C99A,0.78
2,A78G U81G,0.34
3,A78G U81C,1.62
4,A79G A142U,2.04
5,G83U U102C,0
6,U81C A117C,1.59
7,U81C A117U,1.56
8,A79G U104G,1.7
9,A79G U104C,1.22
10,A79G U104A,1.35
11,U81A A94G,0.37
12,U81A A94U,0.6
13,U81G C113U,1.99
14,A78G U132C,1.39
15,A78G U132A,1.62
16,U81A C118U,1.78
17,U81C A121C,1.37
18,A78U G135A,1.8
19,U81C U130C,1.88
20,U81C U130A,1.27
21,A79U G114A,1.79
22,A78U U91G,0.11
23,A78G A129U,1.17
24,U81A U112C,2.32

row,Variant,self-cleavage
1,A79U U115C,1.12
2,U81A U108A,2.18
3,U81A U108C,2.2
4,C84A U130A,0.07
5,A78G G93A,0.04
6,G83A A124U,0.79
7,A78G A117G,0.89
8,U81C G139A,1.63
9,A79U A121C,1.64
10,A78G C90U,0.03
11,A78G A79U,0.52
12,G82A A94G,0.26
13,G80A G86A,0.05
14,G80U U132A,2.3
15,A78U A142G,1.87
16,A78U A142U,2.12
17,A79C A136G,1.93
18,A78G U91C,0.29
19,A79C U134A,1.24
20,A79G U132G,0.63
21,G82U,1.52
22,G82A,1.75
23,C84A C131A,0.18
24,A79U G125A,1.6

row,Variant,self-cleavage
1,U81A A92G,0.15
2,U81G A141G,1.85
3,A79U A141U,2.36
4,A79G G114A,1.23
5,G82A A136G,2.28
6,G83U U108C,1.07
7,A78G U102C,1.53
8,A78G U102G,0.2
9,A78U A92U,1.02
10,A79G U112A,1.54
11,C84G U96A,0.09
12,A79G A140G,1.12
13,A79C U91A,0.94
14,A79G C116U,1.63
15,A79C A121G,1.67
16,U81C U109C,0.38
17,A79G G82U,1.32
18,G80A U112C,1.43
19,A79G U115A,1.4
20,A79G G144C,0.77
21,A78U A117G,2.93
22,A78U A117C,2.72
23,A79G A129U,1.16
24,G83C U143G,1.08

row,Variant,self-cleavage
1,G83A U134C,1.13
2,A79G U130A,1.09
3,A79U C116A,1.49
4,U81A G114C,2.67
5,A79G C120A,1.39
6,U81A A124U,1.78
7,G80A U102C,1.92
8,A78U A79G,0.74
9,A78U U143C,1.31
10,G82A G114C,3
11,A79G A94G,0.35
12,U81C A140U,1.9
13,G83A A121C,0.67
14,A78G U134G,1.07
15,A78G U134A,0.9
16,G83U A141G,0.99
17,A78G G114C,1.09
18,A78G G114A,0.83
19,A79G U81C,0.27
20,A79G U81A,2.28
21,U81C U104C,1.48
22,U81C G89A,0.06
23,U81A A107G,1.84
